Here are results for five molecules from article PMC7988105.

Experiment [1] has as its target NRXN1β (lacking SS4) Fc fusion used as bait in the pull-down. Description: pull-down. The conditions noted are these: chain shown with the change;; parent: est. 100; read off a plot.
The target in experiment [2] is PTPδA3B– extracellular domain fused to Fc (mouse). Description: pull-down; soluble recombinant proteins mixed at 0.03 μM each in HBSS, 2 mM CaCl2, 1 mM MgCl2, 3 h, then Protein A-Sepharose 1 h, room temperature; NLGN3-His6 detected with anti-His.
PTPδA3B– extracellular domain fused to Fc (mouse), sequence (Q64487 other isoform, or with tags, fused parts or gaps mutant): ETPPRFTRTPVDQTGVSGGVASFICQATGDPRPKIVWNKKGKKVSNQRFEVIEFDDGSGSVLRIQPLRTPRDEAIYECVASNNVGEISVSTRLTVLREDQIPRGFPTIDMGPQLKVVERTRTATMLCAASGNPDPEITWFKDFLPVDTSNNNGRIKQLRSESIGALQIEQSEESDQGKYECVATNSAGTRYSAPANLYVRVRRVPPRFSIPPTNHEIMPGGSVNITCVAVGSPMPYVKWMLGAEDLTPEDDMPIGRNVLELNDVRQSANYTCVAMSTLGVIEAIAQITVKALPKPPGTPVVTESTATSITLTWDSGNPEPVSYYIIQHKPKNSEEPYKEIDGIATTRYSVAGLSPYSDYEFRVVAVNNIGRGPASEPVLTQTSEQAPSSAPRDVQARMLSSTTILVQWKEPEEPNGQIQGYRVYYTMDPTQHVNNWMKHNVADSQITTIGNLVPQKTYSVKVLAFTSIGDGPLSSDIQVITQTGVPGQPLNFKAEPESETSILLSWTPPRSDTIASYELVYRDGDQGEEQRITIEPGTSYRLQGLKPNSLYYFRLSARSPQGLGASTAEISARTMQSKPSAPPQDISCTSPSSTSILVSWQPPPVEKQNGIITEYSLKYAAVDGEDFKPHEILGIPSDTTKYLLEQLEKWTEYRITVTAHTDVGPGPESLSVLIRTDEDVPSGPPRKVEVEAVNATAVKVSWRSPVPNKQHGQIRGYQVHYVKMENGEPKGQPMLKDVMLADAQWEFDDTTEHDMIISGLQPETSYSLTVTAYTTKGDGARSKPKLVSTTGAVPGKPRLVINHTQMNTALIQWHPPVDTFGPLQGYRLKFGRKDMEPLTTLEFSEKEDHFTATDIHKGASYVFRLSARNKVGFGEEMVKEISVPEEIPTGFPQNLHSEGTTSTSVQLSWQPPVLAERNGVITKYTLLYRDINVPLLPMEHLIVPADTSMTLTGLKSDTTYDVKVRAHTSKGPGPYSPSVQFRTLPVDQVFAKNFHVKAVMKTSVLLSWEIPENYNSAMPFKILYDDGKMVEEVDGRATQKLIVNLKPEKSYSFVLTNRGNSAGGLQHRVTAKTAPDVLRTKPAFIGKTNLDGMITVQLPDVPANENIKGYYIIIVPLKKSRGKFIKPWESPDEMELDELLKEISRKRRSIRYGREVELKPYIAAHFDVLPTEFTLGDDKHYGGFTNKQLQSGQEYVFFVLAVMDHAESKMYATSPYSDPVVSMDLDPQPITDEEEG

NRXN1β (lacking SS4) Fc fusion used as bait in the pull-down, sequence (chain, as listed by the source): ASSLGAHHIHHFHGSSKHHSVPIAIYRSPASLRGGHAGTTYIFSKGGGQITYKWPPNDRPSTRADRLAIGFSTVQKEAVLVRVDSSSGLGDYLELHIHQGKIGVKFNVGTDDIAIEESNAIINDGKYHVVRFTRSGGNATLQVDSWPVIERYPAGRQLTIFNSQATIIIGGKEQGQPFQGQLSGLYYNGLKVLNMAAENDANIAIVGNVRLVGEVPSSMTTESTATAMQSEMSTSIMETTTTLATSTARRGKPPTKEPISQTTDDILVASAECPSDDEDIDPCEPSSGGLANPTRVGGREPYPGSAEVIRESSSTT

B1: mouse NLGN3 ECD (residues 35–684) with C-terminal His6 tag, Q8BYM5 H279A; S280A; E281A (protein)
chain: QAPAPTVNTHFGKLRGARVPLPSEILGPVDQYLGVPYAAPPIGEKRFLPPEPPPSWSGIRNATHFPPVCPQNIHTAVPEVMLPVWFTANLDIVATYIQEPNEDCLYLNVYVPTEDGSGAKKQGEDLADNDGDEDEDIRDSGAKPVMVYIHGGSYMEGTGNMIDGSVLASYGNVIVITLNYRVGVLGFLSTGDQAAKGNYGLLDQIQALRWVSENIAFFGGDPRRITVFGSGIGASCVSLLTLSHAAAGLFQRAIIQSGSALSSWAVNYQPVKYTSLLADKVGCNVLDTVDMVDCLRQKSAKELVEQDIQPARYHVAFGPVIDGDVIPDDPEILMEQGEFLNYDIMLGVNQGEGLKFVEGVVDPEDGVSGTDFDYSVSNFVDNLYGYPEGKDTLRETIKFMYTDWADRDNPETRRKTLVALFTDHQWVEPSVVTADLHARYGSPTYFYAFYHHCQSLMKPAWSDAAHGDEVPYVFGVPMVGPTDLFPCNFSKNDVMLSAVVMTYWTNFAKTGDPNKPVPQDTKFIHTKANRFEEVAWSKYNPRDQLYLHIGLKPRVRDHYRATKVAFWKHLVPHLYNLHDMFHYTSTTTKVPPPDTTHSSHITRRPNGKTWSTKRPAISPAYSNENAPGSWNGDQDAGPLLVENPRDYSTE
As to B1, the percent of parent in experiment [1] was found to be 22 % WT.

B2: NLGN3 ECD R448C mutant (R/C; equivalent to human R451C) with His6 tag, Q8BYM5 35-684 (domain or fragment)
chain: QAPAPTVNTHFGKLRGARVPLPSEILGPVDQYLGVPYAAPPIGEKRFLPPEPPPSWSGIRNATHFPPVCPQNIHTAVPEVMLPVWFTANLDIVATYIQEPNEDCLYLNVYVPTEDGSGAKKQGEDLADNDGDEDEDIRDSGAKPVMVYIHGGSYMEGTGNMIDGSVLASYGNVIVITLNYRVGVLGFLSTGDQAAKGNYGLLDQIQALRWVSENIAFFGGDPRRITVFGSGIGASCVSLLTLSHHSEGLFQRAIIQSGSALSSWAVNYQPVKYTSLLADKVGCNVLDTVDMVDCLRQKSAKELVEQDIQPARYHVAFGPVIDGDVIPDDPEILMEQGEFLNYDIMLGVNQGEGLKFVEGVVDPEDGVSGTDFDYSVSNFVDNLYGYPEGKDTLRETIKFMYTDWADRDNPETRCKTLVALFTDHQWVEPSVVTADLHARYGSPTYFYAFYHHCQSLMKPAWSDAAHGDEVPYVFGVPMVGPTDLFPCNFSKNDVMLSAVVMTYWTNFAKTGDPNKPVPQDTKFIHTKANRFEEVAWSKYNPRDQLYLHIGLKPRVRDHYRATKVAFWKHLVPHLYNLHDMFHYTSTTTKVPPPDTTHSSHITRRPNGKTWSTKRPAISPAYSNENAPGSWNGDQDAGPLLVENPRDYSTE
With B2, the pulldown efficiency (% of wild-type) (% of wild-type) in experiment [2] worked out at 20.

B3: mouse NLGN3 ECD (residues 35–684) with C-terminal His6 tag, Q8BYM5 M614I; F615S (protein)
chain: QAPAPTVNTHFGKLRGARVPLPSEILGPVDQYLGVPYAAPPIGEKRFLPPEPPPSWSGIRNATHFPPVCPQNIHTAVPEVMLPVWFTANLDIVATYIQEPNEDCLYLNVYVPTEDGSGAKKQGEDLADNDGDEDEDIRDSGAKPVMVYIHGGSYMEGTGNMIDGSVLASYGNVIVITLNYRVGVLGFLSTGDQAAKGNYGLLDQIQALRWVSENIAFFGGDPRRITVFGSGIGASCVSLLTLSHHSEGLFQRAIIQSGSALSSWAVNYQPVKYTSLLADKVGCNVLDTVDMVDCLRQKSAKELVEQDIQPARYHVAFGPVIDGDVIPDDPEILMEQGEFLNYDIMLGVNQGEGLKFVEGVVDPEDGVSGTDFDYSVSNFVDNLYGYPEGKDTLRETIKFMYTDWADRDNPETRRKTLVALFTDHQWVEPSVVTADLHARYGSPTYFYAFYHHCQSLMKPAWSDAAHGDEVPYVFGVPMVGPTDLFPCNFSKNDVMLSAVVMTYWTNFAKTGDPNKPVPQDTKFIHTKANRFEEVAWSKYNPRDQLYLHIGLKPRVRDHYRATKVAFWKHLVPHLYNLHDISHYTSTTTKVPPPDTTHSSHITRRPNGKTWSTKRPAISPAYSNENAPGSWNGDQDAGPLLVENPRDYSTE
Regarding B3, the percent of parent in experiment [1] stood at 115 % WT.

B4: mouse NLGN3 ECD (residues 35–684) with C-terminal His6 tag, Q8BYM5 M614A; F615A (protein)
chain: QAPAPTVNTHFGKLRGARVPLPSEILGPVDQYLGVPYAAPPIGEKRFLPPEPPPSWSGIRNATHFPPVCPQNIHTAVPEVMLPVWFTANLDIVATYIQEPNEDCLYLNVYVPTEDGSGAKKQGEDLADNDGDEDEDIRDSGAKPVMVYIHGGSYMEGTGNMIDGSVLASYGNVIVITLNYRVGVLGFLSTGDQAAKGNYGLLDQIQALRWVSENIAFFGGDPRRITVFGSGIGASCVSLLTLSHHSEGLFQRAIIQSGSALSSWAVNYQPVKYTSLLADKVGCNVLDTVDMVDCLRQKSAKELVEQDIQPARYHVAFGPVIDGDVIPDDPEILMEQGEFLNYDIMLGVNQGEGLKFVEGVVDPEDGVSGTDFDYSVSNFVDNLYGYPEGKDTLRETIKFMYTDWADRDNPETRRKTLVALFTDHQWVEPSVVTADLHARYGSPTYFYAFYHHCQSLMKPAWSDAAHGDEVPYVFGVPMVGPTDLFPCNFSKNDVMLSAVVMTYWTNFAKTGDPNKPVPQDTKFIHTKANRFEEVAWSKYNPRDQLYLHIGLKPRVRDHYRATKVAFWKHLVPHLYNLHDAAHYTSTTTKVPPPDTTHSSHITRRPNGKTWSTKRPAISPAYSNENAPGSWNGDQDAGPLLVENPRDYSTE
As for B4, in experiment [1], the percent of parent was 104 % WT.

B5: mouse NLGN3 ECD (residues 35–684) with C-terminal His6 tag, Q8BYM5 D362A; E372A; N375A (protein)
chain: QAPAPTVNTHFGKLRGARVPLPSEILGPVDQYLGVPYAAPPIGEKRFLPPEPPPSWSGIRNATHFPPVCPQNIHTAVPEVMLPVWFTANLDIVATYIQEPNEDCLYLNVYVPTEDGSGAKKQGEDLADNDGDEDEDIRDSGAKPVMVYIHGGSYMEGTGNMIDGSVLASYGNVIVITLNYRVGVLGFLSTGDQAAKGNYGLLDQIQALRWVSENIAFFGGDPRRITVFGSGIGASCVSLLTLSHHSEGLFQRAIIQSGSALSSWAVNYQPVKYTSLLADKVGCNVLDTVDMVDCLRQKSAKELVEQDIQPARYHVAFGPVIDGDVIPADPEILMEQGAFLAYDIMLGVNQGEGLKFVEGVVDPEDGVSGTDFDYSVSNFVDNLYGYPEGKDTLRETIKFMYTDWADRDNPETRRKTLVALFTDHQWVEPSVVTADLHARYGSPTYFYAFYHHCQSLMKPAWSDAAHGDEVPYVFGVPMVGPTDLFPCNFSKNDVMLSAVVMTYWTNFAKTGDPNKPVPQDTKFIHTKANRFEEVAWSKYNPRDQLYLHIGLKPRVRDHYRATKVAFWKHLVPHLYNLHDMFHYTSTTTKVPPPDTTHSSHITRRPNGKTWSTKRPAISPAYSNENAPGSWNGDQDAGPLLVENPRDYSTE
Turning to B5, in experiment [1], the percent of parent was found to be 18 % WT.
